Experimental findings from the supplement of paper PMC6755084 are described below.

This series concerns F1*sub RNA substrate (template-directed ligation). Kind of series: fraction ligated after 30 min (ligated reads / total reads); higher = more ligase activity; sequences stand for … in GAGACCGCAACTGAAAAGTTGT…AGTTCTGCACGTAGAAGCAAAAGGC
The conditions noted are these: 42 °C. The essentials: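 The ligase ribozyme variants were produced by PCR amplification of oligo-pool templates, T7 transcription and purification on gel. Their ligated and unligated forms were gel-separated, then reverse transcribed with barcoded primers before MiSeq sequencing. Core bases were filtered at a quality of ≥20, and fraction ligated per variant was ligated reads over total reads.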
With ACACTTGTCGTAAACACTTTGGATGGGTTGA [3d34], the fraction ligated was determined as 0.201. For TATACTTGTCGTAAACACTTTGGTGGGTTGA [3d888] the value was 0.019; for “TATCACTTGTCGTAAGACATTTGGATGGTTGA [2d273]”, 0.121; for TTCACTTGTCGTAAGACACTTTGGTGGTTGA [3d498], 0.014. Sequence TTCACTTGTCGTAGACACTTTGATGGGTTGA [3d436] showed a fraction ligated of 0.258. In turn, “TATCACTTGTCGAAGACACTTTGGATGGTTA [3d1977]” gave a fraction ligated of 0.364. The sequence “TATCACTTGCGTAACACTTTGGATGGGTTGA [3d1627]” yielded a fraction ligated of 0.786. Turning to “TATCACTTGCGAAGACACTTTGGTGGGTTGA [3d1621]”, the fraction ligated was 0.0968. To “TATCACTGTCGTAAGCACTTGGATGGGTTGA [3d1411]” belongs 0.745; to “TATCACTTTCGTAAACACTTTGGATGGTTGA [3d1526]”, 0.0497; to “TATCCTTGTCGTAAGACACTTTGATGGGTTA [3d1108]”, 0.644. For TAACTTGTCGTAAACACTTTGGATGGGTTGA [3d516] the value was 0.0735; for “TATCACTTCGTAGACACTTTGGATGGGTTGA [3d1314]”, 0.783; for “TATCCTTGTGTAAGACACTTTGGATGGGTTG [3d1014]”, 0.745.

For the sequence “TATCCTTGTCGAAGACACTTTGGATGGGTTA [3d1040]”, the fraction ligated turned out to be 0.404. In the case of TATCCTTGCTAAGACACTTTGGATGGGTTGA [3d985], the fraction ligated worked out at 0.764. “TATCATTGTCGAAGACACTTTGGATGGGTTA [3d1212]”: the fraction ligated turned out to be 0.475.

The sequence “TATCACTTGTCGTAACCTTTGGATGGGTTGA [3d1994]” gave a fraction ligated of 0.821. As for “TATCCTTGTCGTAGACACTTTGGTGGGTTGA [3d1050]”, the fraction ligated is 0.26. Sequence TTCATTGCGTAAGACACTTTGGATGGGTTGA [3d319] gave a fraction ligated of 0.11.

Consider TTCACTTGCGTAAGACCTTTGGATGGGTTGA [3d378], for which the fraction ligated amounted to 0.311.

With “TATCACTGTCGTAAGACACTTTGGAGGGTTA [3d1458]”, the fraction ligated worked out at 0.0132. TATACTTGTCGTAAGACACTTTGGTGGGTTA [3d940] registered a fraction ligated of 0.00259. For the sequence TATACTTGCGTAAGACACTTTGGATGGTTGA [3d825], the fraction ligated turned out to be 0.0234. In turn, TACACTGTCGTAAGACACTTTGGTGGGTTGA [3d580] returned a fraction ligated of 0.151.

With TACACTGTCGTAAGACACTTTGATGGGTTGA [3d579], the fraction ligated came out at 0.279. In turn, TATACTTGTCGTAAACCTTTGGATGGGTTGA [3d884] showed a fraction ligated of 0.494. For TTCATTGTCGTAAGACACTTTGGTGGGTTGA [3d331] the value was 0.106; for “TATCACTTGTCGAAGACACTTTGGTGGTTGA [3d1971]”, 0.0847. Regarding “TATCACTTGCGTAAGAACTTTGGATGGGTTG [3d1666]”, the fraction ligated is 0.833.

In turn, “TATCCTTGTCGTAAGACACTTTGGATGGGTTA [2d107]” came in with a fraction ligated of 0.401. In turn, TCACTTGTCGTAAGACACTTTGGATGGTTGA [3d21] gave a fraction ligated of 0.709. ATCACTTGCGTAAGACACTTTGGATGGTTGA [3d153]: the fraction ligated is 0.569. TATACTTGTCGTAGACACTTTGATGGGTTGA [3d877] returned a fraction ligated of 0.36. In the case of TTCACTTGCGTAAGACACTTTGGATGGGTTG [3d386], the fraction ligated came out at 0.571. Take ATCACTTGTCGTAAGCCTTTGGATGGGTTGA [3d222]: the fraction ligated was 0.744. Consider “TATCACTGTCGTAAGACACTTTGGTGGTTGA [3d1454]”, for which the fraction ligated is 0.0276. Take “TATCACTGTCGTAAGACATTTGGATGGGTTG [3d1439]”: the fraction ligated was 0.82. For TTCACTTGCGTAAGACACTTTGGATGGGTTGA [2d30] the value was 0.777; for “TATCATTGTCGTAAACCTTTGGATGGGTTGA [3d1228]”, 0.79; for “TATCACTTGCGTAAGACACTTTGGTGGTTGA [3d1695]”, 0.0605. As for TTCACTTGTCGTAAGACACTTTGAGGGTTGA [3d493], the fraction ligated was found to be 0.0469.

For “TATCACTTGCGTAAAACTTTGGATGGGTTGA [3d1639]”, the fraction ligated stood at 0.858. For the sequence “TATCACTTTCGTAGACACTTTGGATGGGTTA [3d1517]”, the fraction ligated worked out at 0.631. Sequence ACACTTGTGTAAGACACTTTGGATGGGTTGA [3d30] gave a fraction ligated of 0.407.

ATCACTTGTCGTAAGCACTTTGATGGGTTGA [3d225] yielded a fraction ligated of 0.393. For ATCACTTTCGTAAGACATTTGGATGGGTTGA [3d132] the value was 0.781; for TATATTGTCGTAAGACACTTTGGATGGGTTGA [2d70], 0.61. In the case of ATCACTTGTCGTAAGAACTTTGGTGGGTTGA [3d234], the fraction ligated is 0.0239. For “TATCATTGTCGTAAACACTTTGGATGGGTTA [3d1235]” the value was 0.472. As to “TATCACTTGTCGAAGAACTTTGGTGGGTTGA [3d1938]”, the fraction ligated was 0.173. Take TATACTTGTCGTAAGCACTTTGGTGGGTTGA [3d898]: the fraction ligated amounted to 0.025. For the sequence “TATCACTTGTCGTAAGCATTTGGATGGGTTG [3d2127]”, the fraction ligated worked out at 0.833. Sequence “TATCACTTGTCTAAGACACTTTGGATGGGTTGA [1d11]” returned a fraction ligated of 0.818.

“TATCACTGTCGAGACACTTTGGATGGGTTGA [3d1372]”: the fraction ligated stood at 0.826. Turning to TTACTTGTGTAAGACACTTTGGATGGGTTGA [3d282], the fraction ligated stood at 0.207.

As to “TATCACTTTCGTAAGACACTTTGGGGGTTGA [3d1574]”, the fraction ligated is 0.0345. Turning to TACACTTGTCGTAAGACATTGGATGGGTTGA [3d707], the fraction ligated was found to be 0.239. In turn, TACACTTGTCGTAAGACACTTTGTGGGTTGA [3d722] had a fraction ligated of 0.115. In turn, “TATCACTTGCGAAGAACTTTGGATGGGTTGA [3d1616]” came in with a fraction ligated of 0.842. In the case of “TATCACTTGTCGAAGACTTTGGATGGGTTGA [3d1925]”, the fraction ligated is 0.784. Sequence “TATCCTTGTCTAAACACTTTGGATGGGTTGA [3d1017]” yielded a fraction ligated of 0.793.

Take TACACTGTCGTAAGACACTTGGATGGGTTGA [3d578]: the fraction ligated amounted to 0.394. To “TATCACTTGTCGTAAACACTTTGGGGGTTGA [3d2094]” belongs 0.0881. “TATCATTGTCTAAGAACTTTGGATGGGTTGA [3d1191]” had a fraction ligated of 0.803. With ATCACTTGTCGTAAGACACTTGGAGGGTTGA [3d256], the fraction ligated was found to be 0.0205. To TACACTTGTCGTAAGACCTTTGGTGGGTTGA [3d702] belongs 0.138; to TATACTTTCGTAAGCACTTTGGATGGGTTGA [3d801], 0.539; to “TATCACTTGCGTAAGCACTTTGGATGGGTTG [3d1658]”, 0.832.

As to “TATCACTTGTCGTAGACACTTTGGATGGGTT [3d2057]”, the fraction ligated turned out to be 0.819. TATCCTTTGTAAGACACTTTGGATGGGTTGA [3d968]: the fraction ligated was found to be 0.772.

In turn, “TATCACTTGTGTAGACACTTTGGATGGTTGA [3d1741]” displayed a fraction ligated of 0.252.
